Source: patent US20190263905A1 (DINONA, published 2019)

Tests used:
[1] = biological target: T1, Antigen CD66c (CEACAM6; Sino Biological, Inc.) (UniProt P40199 35-320); test: ELISA, coated CEACAM6 100 ng/well, antibody 123.46 ng/ml
T1 construct: Bought antigen coated on the ELISA plate; construct not described; also called CD66c antigen; CECACAM6
T1 sequence (looked up): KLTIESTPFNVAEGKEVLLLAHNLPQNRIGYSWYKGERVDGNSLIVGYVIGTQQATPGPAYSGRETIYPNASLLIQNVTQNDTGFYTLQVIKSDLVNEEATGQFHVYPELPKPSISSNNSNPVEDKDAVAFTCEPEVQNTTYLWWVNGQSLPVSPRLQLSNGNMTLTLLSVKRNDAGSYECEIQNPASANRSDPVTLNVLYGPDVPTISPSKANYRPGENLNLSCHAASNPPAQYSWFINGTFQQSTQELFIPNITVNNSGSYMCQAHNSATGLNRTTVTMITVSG
Protocol: (§1) Antigen CD66c (CEACAM6; Sino Biological, Inc.) and CEACAM1 antigen (Sino Biological, Inc.) were coated on a 96-well plate at 100 ng per well and then blocked. The primary antibody was diluted serially three fold from 10 ug/ml at initial concentration and was bound at 37° C. for 1 hour, and goat anti-Human Ig-HRP conjugate (Jackson ImmunoResearch) as a secondary antibody was diluted 1:10,000 and incubated at 37° C. for 30 minutes. The washing was carried out at three times between each step, and the TMB reaction was performed, stopped with 1N H₂SO₄ solution at the same amount of TMB solution (100 ul) and then OD value was measured at 450 nm.
(§2) As a result of the experiment, the binding affinities to CD66c antigen of the five kinds of recombinant humanized antibodies selected from among 96 kinds of recombinant humanized antibodies are shown in FIG. 4a, Table 12, FIG. 4b and Table 13. FIG. 4a and Table 12 show the binding capacity of the antibodies to CECACAM6 CD66c) antigen, and FIG. 4b and Table 13 are the results for the CEACAM1 (CD66a) antigen.

[2] = biological target: T1, Antigen CD66c (CEACAM6; Sino …); test: ELISA, coated CEACAM6 100 ng/well, antibody 3333.33 ng/ml
Protocol: as §1, §2

[3] = biological target: T1, Antigen CD66c (CEACAM6; Sino …); test: ELISA, coated CEACAM6 100 ng/well, antibody 13.72 ng/ml
Protocol: as §1, §2

[4] = biological target: T2, CEACAM1 antigen (Sino Biological, Inc.) (UniProt P13688 35-428); test: ELISA, coated CEACAM1 100 ng/well, antibody 3333.33 ng/ml
T2 construct: Bought antigen coated on the ELISA plate; construct not described; also called CEACAM1 (CD66a) antigen; CD66a
T2 sequence (looked up): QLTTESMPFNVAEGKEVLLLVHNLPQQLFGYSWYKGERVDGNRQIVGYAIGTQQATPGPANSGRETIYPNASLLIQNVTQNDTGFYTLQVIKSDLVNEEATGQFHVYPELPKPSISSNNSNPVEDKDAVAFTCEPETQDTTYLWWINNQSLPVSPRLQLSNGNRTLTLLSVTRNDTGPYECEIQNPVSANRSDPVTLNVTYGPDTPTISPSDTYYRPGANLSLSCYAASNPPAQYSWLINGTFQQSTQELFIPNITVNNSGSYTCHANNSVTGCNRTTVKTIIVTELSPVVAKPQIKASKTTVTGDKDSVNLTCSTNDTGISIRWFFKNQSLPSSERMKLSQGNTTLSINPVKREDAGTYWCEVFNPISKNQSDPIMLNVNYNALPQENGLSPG
Protocol: as §1, §2

[5] = biological target: T1, Antigen CD66c (CEACAM6; Sino …); test: ELISA, coated CEACAM6 100 ng/well, antibody 1111.11 ng/ml
Protocol: as §1, §2

[6] = biological target: T2, CEACAM1 antigen (Sino Biological, Inc.); test: ELISA, coated CEACAM1 100 ng/well, antibody 10000.00 ng/ml
Protocol: as §1, §2

[7] = biological target: T1, Antigen CD66c (CEACAM6; Sino …); test: ELISA, coated CEACAM6 100 ng/well, antibody 370.37 ng/ml
Protocol: as §1, §2

[8] = biological target: T2, CEACAM1 antigen (Sino Biological, Inc.); test: ELISA, coated CEACAM1 100 ng/well, antibody 370.37 ng/ml
Protocol: as §1, §2

[9] = biological target: T1, Antigen CD66c (CEACAM6; Sino …); test: ELISA, coated CEACAM6 100 ng/well, antibody 4.57 ng/ml
Protocol: as §1, §2

[10] = biological target: T3, CD66c (CEACAM6) on CD66c-positive A549 non-small-cell lung cancer cells (UniProt P40199 35-320, limits assumed); test: flow cytometry on CD66c-positive A549 cells, mean fluorescence
T3 construct: whole, on cells; also called CD66c antigen; NCA-90
T3 sequence (looked up): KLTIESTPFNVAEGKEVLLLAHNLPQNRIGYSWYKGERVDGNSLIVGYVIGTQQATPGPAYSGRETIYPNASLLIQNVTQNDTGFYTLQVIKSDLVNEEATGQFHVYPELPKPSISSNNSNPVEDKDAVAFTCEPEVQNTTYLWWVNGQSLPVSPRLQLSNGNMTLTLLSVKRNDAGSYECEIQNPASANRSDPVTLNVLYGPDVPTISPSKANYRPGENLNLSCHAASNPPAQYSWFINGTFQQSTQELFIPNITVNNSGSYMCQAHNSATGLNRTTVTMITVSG
Protocol: Each expressed 96 recombinant humanized antibody was poured and reacted in a test tube containing the same amount ([…]) of CD66c-positive A549 non-small-cell lung cancer cell line at 4° C. for 30 minutes, washed with PBS, and treated with FITC-conjugated goat anti-Human IgG (DiNona Inc, Korea) was added and incubated at 4° C. for 15 minutes. After washing with PBS, the cells were analyzed with a flow cytometer (Stratedigm, S1000EXi) and the results are shown below.
Among the 96 recombinant humanized antibody candidates, eight were firstly selected based on the degree of expression, the presence of aggregation, and the degree of cell binding (Table 9 and Table 10, FIGS. 3A to 3E).

[11] = biological target: T2, CEACAM1 antigen (Sino Biological, Inc.); test: ELISA, coated CEACAM1 100 ng/well, antibody 0.51 ng/ml
Protocol: as §1, §2

| Binder | OD 450 nm [1] [OD] | OD 450 nm [2] [OD] | OD 450 nm [3] [OD] | OD 450 nm [4] [OD] | OD 450 nm [5] [OD] | OD 450 nm [6] [OD] | OD 450 nm [7] [OD] | OD 450 nm [8] [OD] | OD 450 nm [9] [OD] | Mean [10] | OD 450 nm [11] [OD] |
| --- | --- | --- | --- | --- | --- | --- | --- | --- | --- | --- | --- |
| recombinant humanized anti-CD66c antibody Protein ID 3058 (Vk8 + VH11) (antibody, human IgG1, V domains shown, also called hu 3058; #86) VH: QVQLVQSGAEVKKPGASVKISCKASGYSFTDYTMHWVKQAPGQNLEWIGLINPFGGSTSYAQKFKGRVTMTRDTSTNTAYMELSRLRSDDTAVYYCVRGDPVRHYYALAYWGQGTLVTVSS VL: DIQMTQSPSTLSASVGDRVTITCRASENVYGTLNWYQRKPGKAPKLLIYGATNLADGMPSRFSGSGSGTEYTLTISSLQPDDFATYYCQNVLSAPYTFGGGTKLEIK | 2.22 | 3.18 | 1.06 | 0.31 | 3.19 | 0.42 | 2.8 | 0.12 | 0.74 | 645 | 0.04 |
| recombinant humanized anti-CD66c antibody Protein ID 3007 (Vk7 + VH6) (antibody, human IgG1, V domains shown, also called hu 3007; #43) VH: QVQLVQSGAEVKKPGASMKISCKASGYSFTDYTMNWVKQAPGQNLEWIGLINPFHGGTVSNQRFKVKATLTVDVSTNTAYMELSRLRSDDTAVYYCVRGDPVRHYYALAYWGQGTLVTVSS VL: DIQMTQSPSTLSASVGDRVTITCGASENVYGTLNWYQRKPGKAPKLLIYGATNLADGVPSRFSGSGSGTEYTLTISSLQPDDFATYYCQNVLSAPYTFGGGTKLEIK | 2.9 | 3.24 | 1.64 | 1.15 | 3.23 | 1.01 | 3.16 | 0.92 | 1.02 | 565 | 0.11 |
| recombinant humanized anti-CD66c antibody Protein ID 2938 (Vk5 + VH7) (antibody, human IgG1, V domains shown, also called hu 2938) VH: QVQLVQSGAEVKKPGASMKISCKASGYSFTDYTMNWVRQAPGQGLEWIGLINPFHGGTVSNQRFKVKATLTVDVSTNTAYMELSRLRSDDTAVYYCVRGDPVRHYYALAYWGQGTLVTVSS VL: DIQMTQSPSTLSASVGDRVTITCGASENVYGTLAWYQRKPGKAPKLLIYGATNLADGVPSRFSGSGSGREYTLTISSLQPDDFATYYCQNVLSAPYTFGGGTKLEIK | 2.56 | 3.27 | 1.15 | 0.27 | 3.16 | 0.32 | 3.08 | 0.14 | 0.65 | 611 | 0.05 |
| recombinant humanized anti-CD66c antibody Protein ID 3043 (Vk8 + VH6) (antibody, human IgG1, V domains shown, also called hu 3043; #71) VH: QVQLVQSGAEVKKPGASMKISCKASGYSFTDYTMNWVKQAPGQNLEWIGLINPFHGGTVSNQRFKVKATLTVDVSTNTAYMELSRLRSDDTAVYYCVRGDPVRHYYALAYWGQGTLVTVSS VL: DIQMTQSPSTLSASVGDRVTITCRASENVYGTLNWYQRKPGKAPKLLIYGATNLADGMPSRFSGSGSGTEYTLTISSLQPDDFATYYCQNVLSAPYTFGGGTKLEIK | 2.29 | 2.95 | 1.37 | 1.22 | 2.74 | 0.91 | 2.92 | 0.8 | 0.91 | 686 | 0.1 |
| anti-CD66c chimeric antibody 8F5 (antibody, human IgG1, V domains shown, also called chimeric 8F5 antibody; chi 8F5) VH: EVQLQQSGPELVKPGASMKISCKASGYSFTDYTMNWVKQSHGKNLEWIGLINPFHGGTVSNQRFKVKATLTVDVSSNTAYMELLSLTSDDSAVYYCVRGDPVRHYYALAYWGQGTSVTVSS VL: DIQMTQSPASLSASVGETVTITCGASENVYGTLNWYQRKQGKSPQLLIYGATNLADGMSSRFSGSGSGRQYSLKISSLHPDDVATYYCQNVLSAPYTFGGGTKLEII | 2.83 | 3.41 | 1.15 | 1.24 | 3.3 | 1.21 | 3.3 | 1.13 | 0.8 | 619 | 0.1 |
